This note sets out measurements from patent US20140087995A1 (published 2014).

A word on the IC50: it is the concentration at which inhibition is half-maximal. Lower therefore signals greater potency.

Sequences and labels used below:
T1: human amylin receptor (human, UniProt P30988 25-474; O60896 24-148, limits assumed)
T1 construct: whole, on cells; Calcitonin receptor plus RAMP-3 gives the amylin 3(a) receptor; membranes of Amylin 3(a)/CRE-luc cells were used; also called hAmylin-R; hAmylinR
T1 sequence (looked up) 1: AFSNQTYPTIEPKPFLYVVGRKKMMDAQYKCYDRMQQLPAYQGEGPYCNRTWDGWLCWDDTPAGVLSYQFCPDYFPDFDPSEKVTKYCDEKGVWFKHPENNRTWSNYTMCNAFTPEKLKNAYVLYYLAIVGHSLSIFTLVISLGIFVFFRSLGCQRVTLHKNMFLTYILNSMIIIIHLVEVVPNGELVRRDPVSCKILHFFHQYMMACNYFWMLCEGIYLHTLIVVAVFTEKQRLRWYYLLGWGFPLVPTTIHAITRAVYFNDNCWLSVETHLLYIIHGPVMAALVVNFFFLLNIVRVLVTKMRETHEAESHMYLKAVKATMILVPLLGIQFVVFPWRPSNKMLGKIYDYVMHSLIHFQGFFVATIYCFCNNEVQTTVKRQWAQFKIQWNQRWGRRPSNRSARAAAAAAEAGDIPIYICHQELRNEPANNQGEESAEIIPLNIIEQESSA
T1 sequence (looked up) 2: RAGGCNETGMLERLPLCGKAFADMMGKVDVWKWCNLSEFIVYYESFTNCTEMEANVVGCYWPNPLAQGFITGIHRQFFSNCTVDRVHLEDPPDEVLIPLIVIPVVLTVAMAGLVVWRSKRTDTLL

B1: N^α1N^α1-[(4S)-4-carboxy-4-(19-carboxynonadecanoylamino)butanoyl]-[Glu14,Arg17,Pro21,Pro27,Glu35]-h-amylin (peptide)
peptide: {C20 diacid-γGlu}-KCNTATCATQRLAEFLRHSSPNFGAIPSSTNVGSETY-NH2
modifications: disulfide 2-7
SMILES: CC[C@H](C)[C@H](NC(=O)[C@H](C)NC(=O)CNC(=O)[C@H](Cc1ccccc1)NC(=O)[C@H](CC(N)=O)NC(=O)[C@@H]1CCCN1C(=O)[C@H](CO)NC(=O)[C@H](CO)NC(=O)[C@H](Cc1c[nH]cn1)NC(=O)[C@H](CCCNC(=N)N)NC(=O)[C@H](CC(C)C)NC(=O)[C@H](Cc1ccccc1)NC(=O)[C@H](CCC(=O)O)NC(=O)[C@H](C)NC(=O)[C@H](CC(C)C)NC(=O)[C@H](CCCNC(=N)N)NC(=O)[C@H](CCC(N)=O)NC(=O)[C@@H](NC(=O)[C@H](C)NC(=O)[C@@H]1CSSC[C@H](NC(=O)[C@H](CCCCN)NC(=O)CC[C@H](NC(=O)CCCCCCCCCCCCCCCCCCC(=O)O)C(=O)O)C(=O)N[C@@H](CC(N)=O)C(=O)N[C@@H]([C@@H](C)O)C(=O)N[C@@H](C)C(=O)N[C@@H]([C@@H](C)O)C(=O)N1)[C@@H](C)O)C(=O)N1CCC[C@H]1C(=O)N[C@@H](CO)C(=O)N[C@@H](CO)C(=O)N[C@H](C(=O)N[C@@H](CC(N)=O)C(=O)N[C@H](C(=O)NCC(=O)N[C@@H](CO)C(=O)N[C@@H](CCC(=O)O)C(=O)N[C@H](C(=O)N[C@@H](Cc1ccc(O)cc1)C(N)=O)[C@@H](C)O)C(C)C)[C@@H](C)O
notes: also called 14E, 17R, 21P, 27P, 35E
B2: N^ε1-[2-[2-[2-[[2-[2-[2-[[(4S)-4-carboxy-4-(19-carboxynonadecanoylamino)butanoyl]amino]ethoxy]ethoxy]acetyl]amino]ethoxy]ethoxy]acetyl]-[Arg17,Pro21,Pro27,Pro31 … (peptide)
peptide: K([AEEA-AEEA-γGlu-C20 diacid])CNTATCATQRLANFLRHSSPNFGAIPSSTPVGSNTY-NH2
modifications: disulfide 2-7; N-terminus assumed
SMILES: CC[C@H](C)[C@H](NC(=O)[C@H](C)NC(=O)CNC(=O)[C@H](Cc1ccccc1)NC(=O)[C@H](CC(N)=O)NC(=O)[C@@H]1CCCN1C(=O)[C@H](CO)NC(=O)[C@H](CO)NC(=O)[C@H](Cc1c[nH]cn1)NC(=O)[C@H](CCCNC(=N)N)NC(=O)[C@H](CC(C)C)NC(=O)[C@H](Cc1ccccc1)NC(=O)[C@H](CC(N)=O)NC(=O)[C@H](C)NC(=O)[C@H](CC(C)C)NC(=O)[C@H](CCCNC(=N)N)NC(=O)[C@H](CCC(N)=O)NC(=O)[C@@H](NC(=O)[C@H](C)NC(=O)[C@@H]1CSSC[C@H](NC(=O)[C@@H](N)CCCCNC(=O)COCCOCCNC(=O)COCCOCCNC(=O)CC[C@H](NC(=O)CCCCCCCCCCCCCCCCCCC(=O)O)C(=O)O)C(=O)N[C@@H](CC(N)=O)C(=O)N[C@@H]([C@@H](C)O)C(=O)N[C@@H](C)C(=O)N[C@@H]([C@@H](C)O)C(=O)N1)[C@@H](C)O)C(=O)N1CCC[C@H]1C(=O)N[C@@H](CO)C(=O)N[C@@H](CO)C(=O)N[C@H](C(=O)N1CCC[C@H]1C(=O)N[C@H](C(=O)NCC(=O)N[C@@H](CO)C(=O)N[C@@H](CC(N)=O)C(=O)N[C@H](C(=O)N[C@@H](Cc1ccc(O)cc1)C(N)=O)[C@@H](C)O)C(C)C)[C@@H](C)O
notes: also called 17R, 21P, 27P, 31P
B3: N^ε1-[2-[2-[2-(19-carboxynonadecanoylamino)ethoxy]ethoxy]acetyl]-[Arg17,Pro21,Pro27,His34]-h-amylin (peptide)
peptide: K([AEEA-C20 diacid])CNTATCATQRLANFLRHSSPNFGAIPSSTNVGHNTY-NH2
modifications: disulfide 2-7; N-terminus assumed
SMILES: CC[C@H](C)[C@H](NC(=O)[C@H](C)NC(=O)CNC(=O)[C@H](Cc1ccccc1)NC(=O)[C@H](CC(N)=O)NC(=O)[C@@H]1CCCN1C(=O)[C@H](CO)NC(=O)[C@H](CO)NC(=O)[C@H](Cc1c[nH]cn1)NC(=O)[C@H](CCCNC(=N)N)NC(=O)[C@H](CC(C)C)NC(=O)[C@H](Cc1ccccc1)NC(=O)[C@H](CC(N)=O)NC(=O)[C@H](C)NC(=O)[C@H](CC(C)C)NC(=O)[C@H](CCCNC(=N)N)NC(=O)[C@H](CCC(N)=O)NC(=O)[C@@H](NC(=O)[C@H](C)NC(=O)[C@@H]1CSSC[C@H](NC(=O)[C@@H](N)CCCCNC(=O)COCCOCCNC(=O)CCCCCCCCCCCCCCCCCCC(=O)O)C(=O)N[C@@H](CC(N)=O)C(=O)N[C@@H]([C@@H](C)O)C(=O)N[C@@H](C)C(=O)N[C@@H]([C@@H](C)O)C(=O)N1)[C@@H](C)O)C(=O)N1CCC[C@H]1C(=O)N[C@@H](CO)C(=O)N[C@@H](CO)C(=O)N[C@H](C(=O)N[C@@H](CC(N)=O)C(=O)N[C@H](C(=O)NCC(=O)N[C@@H](Cc1c[nH]cn1)C(=O)N[C@@H](CC(N)=O)C(=O)N[C@H](C(=O)N[C@@H](Cc1ccc(O)cc1)C(N)=O)[C@@H](C)O)C(C)C)[C@@H](C)O
notes: also called 17R, 21P, 27P, 34H
B4: N^ε1-[2-[2-[2-[[2-[2-[2-[[(4S)-4-carboxy-4-(19-carboxynonadecanoylamino)butanoyl]amino]ethoxy]ethoxy]acetyl]amino]ethoxy]ethoxy]acetyl]-[Arg17,Pro21,Pro27,His34 … (peptide)
peptide: K([AEEA-AEEA-γGlu-C20 diacid])CNTATCATQRLANFLRHSSPNFGAIPSSTNVGHNTY-NH2
modifications: disulfide 2-7; N-terminus assumed
SMILES: CC[C@H](C)[C@H](NC(=O)[C@H](C)NC(=O)CNC(=O)[C@H](Cc1ccccc1)NC(=O)[C@H](CC(N)=O)NC(=O)[C@@H]1CCCN1C(=O)[C@H](CO)NC(=O)[C@H](CO)NC(=O)[C@H](Cc1c[nH]cn1)NC(=O)[C@H](CCCNC(=N)N)NC(=O)[C@H](CC(C)C)NC(=O)[C@H](Cc1ccccc1)NC(=O)[C@H](CC(N)=O)NC(=O)[C@H](C)NC(=O)[C@H](CC(C)C)NC(=O)[C@H](CCCNC(=N)N)NC(=O)[C@H](CCC(N)=O)NC(=O)[C@@H](NC(=O)[C@H](C)NC(=O)[C@@H]1CSSC[C@H](NC(=O)[C@@H](N)CCCCNC(=O)COCCOCCNC(=O)COCCOCCNC(=O)CC[C@H](NC(=O)CCCCCCCCCCCCCCCCCCC(=O)O)C(=O)O)C(=O)N[C@@H](CC(N)=O)C(=O)N[C@@H]([C@@H](C)O)C(=O)N[C@@H](C)C(=O)N[C@@H]([C@@H](C)O)C(=O)N1)[C@@H](C)O)C(=O)N1CCC[C@H]1C(=O)N[C@@H](CO)C(=O)N[C@@H](CO)C(=O)N[C@H](C(=O)N[C@@H](CC(N)=O)C(=O)N[C@H](C(=O)NCC(=O)N[C@@H](Cc1c[nH]cn1)C(=O)N[C@@H](CC(N)=O)C(=O)N[C@H](C(=O)N[C@@H](Cc1ccc(O)cc1)C(N)=O)[C@@H](C)O)C(C)C)[C@@H](C)O
notes: as for B3
B5: N^ε1-[2-[2-[2-(19-carboxynonadecanoylamino)ethoxy]ethoxy]acetyl]-[His14,Arg17,Pro21,Pro27]-h-amylin (peptide)
peptide: K([AEEA-C20 diacid])CNTATCATQRLAHFLRHSSPNFGAIPSSTNVGSNTY-NH2
modifications: disulfide 2-7; N-terminus assumed
SMILES: CC[C@H](C)[C@H](NC(=O)[C@H](C)NC(=O)CNC(=O)[C@H](Cc1ccccc1)NC(=O)[C@H](CC(N)=O)NC(=O)[C@@H]1CCCN1C(=O)[C@H](CO)NC(=O)[C@H](CO)NC(=O)[C@H](Cc1c[nH]cn1)NC(=O)[C@H](CCCNC(=N)N)NC(=O)[C@H](CC(C)C)NC(=O)[C@H](Cc1ccccc1)NC(=O)[C@H](Cc1c[nH]cn1)NC(=O)[C@H](C)NC(=O)[C@H](CC(C)C)NC(=O)[C@H](CCCNC(=N)N)NC(=O)[C@H](CCC(N)=O)NC(=O)[C@@H](NC(=O)[C@H](C)NC(=O)[C@@H]1CSSC[C@H](NC(=O)[C@@H](N)CCCCNC(=O)COCCOCCNC(=O)CCCCCCCCCCCCCCCCCCC(=O)O)C(=O)N[C@@H](CC(N)=O)C(=O)N[C@@H]([C@@H](C)O)C(=O)N[C@@H](C)C(=O)N[C@@H]([C@@H](C)O)C(=O)N1)[C@@H](C)O)C(=O)N1CCC[C@H]1C(=O)N[C@@H](CO)C(=O)N[C@@H](CO)C(=O)N[C@H](C(=O)N[C@@H](CC(N)=O)C(=O)N[C@H](C(=O)NCC(=O)N[C@@H](CO)C(=O)N[C@@H](CC(N)=O)C(=O)N[C@H](C(=O)N[C@@H](Cc1ccc(O)cc1)C(N)=O)[C@@H](C)O)C(C)C)[C@@H](C)O
notes: also called 14H, 17R, 21P, 27P
B6: N^ε1-[2-[2-[2-[[2-[2-[2-[[(4S)-4-carboxy-4-(19-carboxynonadecanoylamino)butanoyl]amino]ethoxy]ethoxy]acetyl]amino]ethoxy]ethoxy]acetyl]-[Arg17,Pro21,Pro27,Glu35 … (peptide)
peptide: K([AEEA-AEEA-γGlu-C20 diacid])CNTATCATQRLANFLRHSSPNFGAIPSSTNVGSETY-NH2
modifications: disulfide 2-7; N-terminus assumed
SMILES: CC[C@H](C)[C@H](NC(=O)[C@H](C)NC(=O)CNC(=O)[C@H](Cc1ccccc1)NC(=O)[C@H](CC(N)=O)NC(=O)[C@@H]1CCCN1C(=O)[C@H](CO)NC(=O)[C@H](CO)NC(=O)[C@H](Cc1c[nH]cn1)NC(=O)[C@H](CCCNC(=N)N)NC(=O)[C@H](CC(C)C)NC(=O)[C@H](Cc1ccccc1)NC(=O)[C@H](CC(N)=O)NC(=O)[C@H](C)NC(=O)[C@H](CC(C)C)NC(=O)[C@H](CCCNC(=N)N)NC(=O)[C@H](CCC(N)=O)NC(=O)[C@@H](NC(=O)[C@H](C)NC(=O)[C@@H]1CSSC[C@H](NC(=O)[C@@H](N)CCCCNC(=O)COCCOCCNC(=O)COCCOCCNC(=O)CC[C@H](NC(=O)CCCCCCCCCCCCCCCCCCC(=O)O)C(=O)O)C(=O)N[C@@H](CC(N)=O)C(=O)N[C@@H]([C@@H](C)O)C(=O)N[C@@H](C)C(=O)N[C@@H]([C@@H](C)O)C(=O)N1)[C@@H](C)O)C(=O)N1CCC[C@H]1C(=O)N[C@@H](CO)C(=O)N[C@@H](CO)C(=O)N[C@H](C(=O)N[C@@H](CC(N)=O)C(=O)N[C@H](C(=O)NCC(=O)N[C@@H](CO)C(=O)N[C@@H](CCC(=O)O)C(=O)N[C@H](C(=O)N[C@@H](Cc1ccc(O)cc1)C(N)=O)[C@@H](C)O)C(C)C)[C@@H](C)O
notes: also called 17R, 21P, 27P, 35E

Numbered stars: 1 amine (or outer) side, 2 acyl side, 3 side chain; on linkers, the order of the positions; unused ones are H or OH. Bridge positions count the residues as written; N and C are the ends. Side chains are listed from the residue outwards. Ends that are not written are not given here. * marks the point of attachment. C20 diacid = O=C(O)CCCCCCCCCCCCCCCCCCC(=O)*; γGlu = O=C(O)[C@H](CCC(=O)[*:2])N[*:1]; AEEA = NCCOCCOCC(=O)O

The experiment addresses T1, human amylin receptor. The experiment in a line: SPA competition binding, displacement of 125I-rat amylin from membranes with human amylin 3(a) receptor (Assay V). Summed up: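 Cell membranes were prepared by homogenisation in Na-HEPES/EDTA buffer, pH 7.4, and stored at −80° C. They were then coupled to SPA beads at 35 ng/μL final and exposed to compounds in assay buffer containing CaCl2, MgCl₂, OA and Tween20. After 120 min at 25° C, plates were counted and IC₅₀ derived.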
The molecule B1 showed an IC50 of 0.794 nM. Regarding B2, the IC50 was found to be 0.166 nM. For B3 the value was 0.119 nM. Take B4: the IC50 came to 0.568 nM. This IC50 is about 4.8-fold higher than that of the molecule before. Take B5: the IC50 amounted to 0.061 nM. With B6 the figure was 0.768 nM.
